Measured values from patent US20210009693A1 (MABSPACE BIOSCIENCES SUZHOU, published 2021).
Like-named read-outs stand apart in the source and are kept apart here.

Tests used:
[1] = biological target: T1, Recombinant Human PD-L1/CD274 Protein (hPD-L1-his) (human, UniProt Q9NZQ7 19-238); experiment: ELISA on coated hPD-L1-his
T1 construct: range 19-238; ACRO Biosystem PD1-H5229, made in HEK293; also called human PD-L1-his; hPD-L-his

[2] = biological target: T1, Recombinant Human PD-L1/CD274 Protein …; experiment: ELISA on coated hPD-L1-his; bound at pH7.4, then 2 h at pH5.5
[3] = biological target: T2, Human PD-L1/CD274 with C-Fc Tag (hPD-L1-Fc) (human, UniProt Q9NZQ7 19-238); experiment: blocking ELISA on coated hPD-L1-Fc; blocked ligand: biotinylated hPD-1-N297A
T2 construct: range 19-238; ACRO Biosystem PD1-H5258, made in HEK293; also called human PD-L1-Fc; not shown: Fc fragment of human IgG1 at C-terminus

[4] = biological target: T3, human PD-L1 expressed on cells (human, UniProt Q9NZQ7 19-290); experiment: FACS, IFN-gamma stimulated HCC827 cells
T3 construct: whole, on cells; also called hPD-L1 expressed on HCC827; hPD-L1 on MC38/hPD-L1 cells
Experimental: Log phase IFN-γ stimulated (500U/ml for 2 days) HCC827 cells were collected and resuspended in blocking buffer (5% BSA+PBS). 2×10\hat{ }5 cells were added to each tube and then washed once with PBS (1500 rpm, 5 mins, RT). The 100 μl/tube serial diluted biotinylated PD-L1 antibodies with blocking buffer were added into corresponding tubes and incubate at 4° C. for 1 hr.

[5] = biological target: T3, human PD-L1 expressed on cells; experiment: blocking FACS on HCC827 cells; blocked ligand: biotinylated hPD-1-N297A
Experimental: Log phase IFN-γ stimulated (500U/ml for 2 days) HCC827 cells were collected and resuspended in blocking buffer (5% BSA+PBS). 2×10\hat{ }5 cells were added to each tube and then washed once with PBS (1500 rpm, 5 mins, RT). The 100 μl/tube serial diluted PD-L1 antibodies (see FIG. 8) with blocking buffer were added into corresponding tubes and incubate at 4° C. for 1 hr. […] After washing for three times with PBS, 100 μl/tube streptavidin-PE 1:200 (EBiosciences) in blocking buffer was added to each tube. The cells were incubated at 4° C. for 1 hr and then washed twice with PBS, followed by resuspending cells in 150 μl PBS for each sample. The cells were then transferred into FACS tube and the binding of the antibodies to the cells were detected with flow cytometry (ACEA Bioscience Novocyte).

[6] = biological target: T1, Recombinant Human PD-L1/CD274 Protein …; experiment: ELISA on coated hPD-L1-his; bound at pH7.4, then 2 h at pH7.4
[7] = biological target: T1, Recombinant Human PD-L1/CD274 Protein …; experiment: ELISA, purified mouse antibody on coated hPD-L1-his
Experimental: High-binding clear polystyrene 96 well plates (Nunc) were coated with 100 μl/well of a 0.5 μg/ml hPD-L1-his in high pH coating buffer and incubated overnight 4° C. Then plates were washed once on an automatic plate washer using washing buffer (PBS+0.1% Tween 20 (Sigma)). 200 μl of blocking buffer (PBS+1% BSA+1% normal goat serum+0.05% Tween-20) was added to each well and incubated 2 hours at room temp. Then add serially diluted purified antibodies with dilution buffer (PBS+1% BSA+1% normal goat serum+0.01% Tween-20) and incubate for 1 hour at RT. The plates were then washed 3 times using the method described above. 100 μl/well of a solution of HRP conjugated goat anti-mouse Fc antibody (Abcam) in dilution buffer was then added to each well of the plate. After that the ELISA plates were allowed to incubate for 60 min at RT then plates were washed 3 times with 250 μl/well washing buffer. Finally, 100 μl/well of TMB was added to each well and was terminated using 0.64M H₂SO₄. The plates were read on a Thermo Multiscan FC at 450 nM (see FIG. 3).

[8] = biological target: T3, human PD-L1 expressed on cells; experiment: FACS, IFN-gamma stimulated HCC827 cells; remark: listed apart in the source
Experimental: Log phase IFN-γ stimulated (500U/ml for 2 days) HCC827 cells were collected and resuspended in blocking buffer (5% BSA+PBS). 2×10\hat{ }5 cells were added to each tube and then washed once with PBS (1500 rpm, 5 mins, RT). The 100 μl/tube serial diluted PD-L1 antibodies purified from hybridoma supernatant in blocking buffer were added into corresponding tubes and were incubated at 4° C. for 1 hr. The cells were then washed twice with 1 ml PBS, followed by adding 100 μl/tube of 2nd antibody (1:400 anti-mIgG (H+L)-PE, Cell signaling) in blocking buffer. The cells were incubated at 4° C. for 1 hr and then washed twice with PBS, followed by resuspending cells in 150 μl PBS for each sample. The cells were then transferred into FACS tube and the bindings of the antibodies to the cells were detected using flow cytometry (BD Accuri C6) (see FIG. 5A).

[9] = biological target: T4, wild type human PD-L1-Fc protein (SEQ ID NO: 107) (human); experiment: ELISA on captured PD-L1-Fc, as in Example 18A
T4 construct: Extracellular human PD-L1 (amino acid 19-238) with Fc fragment of human IgG1, expressed in 293T cells and used as culture supernatant; also called WT PD-L1; wild-type PD-L1

[10] = biological target: T5, human PD-L1-Fc mutant E58A (human); experiment: ELISA on captured PD-L1-Fc, as in Example 18A
T5 construct: Position 58 counts on native human PD-L1 (NP_054862.1); also called E58A mutant

[11] = biological target: T3, human PD-L1 expressed on cells; experiment: blocking FACS on HCC827 cells; blocked ligand: biotinylated hPD-1-N297A; remark: listed apart in the source
Experimental: Log phase IFN-γ stimulated (500U/ml for 2 days) HCC827 cells were collected and resuspended in blocking buffer (5% BSA+PBS). 2×10\hat{ }5 cells were added to each tube and then washed once with PBS (1500 rpm, 5 mins, RT). […] The cells were incubated at 4° C. for 1 hr and then washed twice with PBS, followed by resuspending cells in 150 μl PBS for each sample.

[12] = biological target: T6, hPD-L2-Fc (human, UniProt Q9BQ51 20-219); experiment: ELISA, plate coated with hPD-L2-Fc
T6 construct: Acrobiosystems PD2-H5251; also called human PD-L2 protein; not shown: Fc tag
T6 sequence (looked up): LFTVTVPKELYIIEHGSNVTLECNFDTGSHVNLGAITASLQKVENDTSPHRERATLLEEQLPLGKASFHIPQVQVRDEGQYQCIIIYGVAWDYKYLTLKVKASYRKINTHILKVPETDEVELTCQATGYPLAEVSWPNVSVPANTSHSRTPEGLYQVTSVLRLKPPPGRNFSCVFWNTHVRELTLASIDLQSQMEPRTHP

[13] = biological target: T7, Recombinant Mouse PD-L1/CD274 Protein (mPD-L1-his) (mouse, UniProt Q9EP73 19-238); experiment: ELISA, 20 ug/ml antibody on coated mouse PD-L1 (his-tagged per text, mPD-L1-Fc per sheet title)
T7 construct: range 19-238; ACRO Biosystem PD1-M5220; also called mouse PD-L1-his
Outline: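 Wells coated overnight at 4 °C with 1 μg/ml mouse PD-L1-his, blocked 2 h with BSA/goat serum buffer; purified hybridoma mouse antibodies at 20 μg/ml bound 1 h at RT. Detection by HRP goat anti-mouse Fc (60 min, RT), TMB, acid stop, absorbance at 450 nm.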

[14] = biological target: T8, Cynomolgus PD-L1/CD274 with His tag (cPD-L1-His) (cynomolgus); experiment: ELISA on coated cynomolgus PD-L1-his
T8 construct: range 19-238; ACRO Biosystem PD1-C52H4; also called cynomolgus (cyno) PD-L1-his; cynomolgis PD-L1-his
Experimental: (§1) High-binding clear polystyrene 96-well plates (Nunc) were coated with 100 μl/well of a 0.5 μg/ml human or cynomolgus (cyno) PD-L1-his in high pH coating buffer and incubated overnight at 4° C. Then plates were washed once on an automatic plate washer using washing buffer (PBS+0.1% Tween 20 (Sigma)). 200 μl of blocking buffer (PBS+1% BSA+1% normal goat serum+0.05% Tween-20) was added to each well and incubated for 2 hours at room temperature. Then add serial diluted antibodies with dilution buffer (PBS+1% BSA+1% normal goat serum+0.01% Tween-20) and incubated for 1 hour at RT. The plates were then washed 3 times using the method described above. […] After that the ELISA plates were allowed to incubate for 60 min at RT then plates were washed 3 times with 250 μl/well washing buffer. Finally, 100 μl/well of TMB was added to each well and the reaction was terminated using 0.64M H₂SO₄. The plates were read on a Thermo Multiscan FC at 450 nM (see FIG. 6A to 6E).

[15] = biological target: T7, Recombinant Mouse PD-L1/CD274 Protein …; experiment: ELISA, plate coated with mouse PD-L1-his
[16] = biological target: T1, Recombinant Human PD-L1/CD274 Protein …; experiment: ELISA on coated hPD-L1-his; bound at pH7.4, then 2 h at pH7.4; remark: listed apart in the source
[17] = biological target: T1, Recombinant Human PD-L1/CD274 Protein …; experiment: ELISA on coated hPD-L1-his; bound at pH7.4, then 2 h at pH5.5; remark: listed apart in the source
[18] = biological target: T1, Recombinant Human PD-L1/CD274 Protein …; experiment: ELISA on coated human PD-L1-his
Experimental: as §1

T5 sequence (chain, as listed by the source E58A E58A limits assumed): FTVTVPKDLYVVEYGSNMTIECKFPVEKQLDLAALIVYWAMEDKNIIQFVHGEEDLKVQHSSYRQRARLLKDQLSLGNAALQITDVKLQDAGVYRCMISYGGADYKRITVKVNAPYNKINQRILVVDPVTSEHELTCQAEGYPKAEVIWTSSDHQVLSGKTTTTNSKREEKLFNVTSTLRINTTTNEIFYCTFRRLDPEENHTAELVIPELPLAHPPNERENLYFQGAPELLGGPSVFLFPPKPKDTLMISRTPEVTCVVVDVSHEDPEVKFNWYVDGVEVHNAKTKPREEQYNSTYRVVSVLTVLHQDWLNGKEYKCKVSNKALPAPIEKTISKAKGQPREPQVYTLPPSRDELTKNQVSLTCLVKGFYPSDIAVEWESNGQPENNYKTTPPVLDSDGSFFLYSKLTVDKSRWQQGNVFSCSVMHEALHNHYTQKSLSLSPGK
T4 sequence (chain, as listed by the source limits assumed): as the sequence (chain, as listed by the source E58A E58A limits assumed) above, with A40E counted along it
T1 sequence (Q9NZQ7 other isoform, or with tags, fused parts or gaps limits assumed): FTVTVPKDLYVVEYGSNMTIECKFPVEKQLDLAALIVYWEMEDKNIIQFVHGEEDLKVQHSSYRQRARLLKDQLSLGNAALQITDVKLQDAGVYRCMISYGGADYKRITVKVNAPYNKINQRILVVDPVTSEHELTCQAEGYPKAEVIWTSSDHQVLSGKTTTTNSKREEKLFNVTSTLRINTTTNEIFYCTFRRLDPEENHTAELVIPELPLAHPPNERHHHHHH
T3 sequence (Q9NZQ7 19-290): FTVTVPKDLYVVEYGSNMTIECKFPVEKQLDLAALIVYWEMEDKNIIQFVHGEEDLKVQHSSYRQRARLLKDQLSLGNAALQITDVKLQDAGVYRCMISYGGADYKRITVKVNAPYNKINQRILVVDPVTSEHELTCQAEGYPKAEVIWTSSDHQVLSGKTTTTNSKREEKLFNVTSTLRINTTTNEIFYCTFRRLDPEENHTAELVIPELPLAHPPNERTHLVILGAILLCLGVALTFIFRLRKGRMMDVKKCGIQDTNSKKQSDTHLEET
T7 sequence (Q9EP73 other isoform, or with tags, fused parts or gaps limits assumed): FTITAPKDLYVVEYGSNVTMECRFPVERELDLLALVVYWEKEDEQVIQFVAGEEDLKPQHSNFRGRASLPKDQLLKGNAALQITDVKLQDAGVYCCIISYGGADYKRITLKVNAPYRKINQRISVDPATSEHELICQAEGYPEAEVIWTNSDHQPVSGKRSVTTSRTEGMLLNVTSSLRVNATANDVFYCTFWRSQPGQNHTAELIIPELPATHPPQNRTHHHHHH
T2 sequence (Q9NZQ7 19-238 limits assumed): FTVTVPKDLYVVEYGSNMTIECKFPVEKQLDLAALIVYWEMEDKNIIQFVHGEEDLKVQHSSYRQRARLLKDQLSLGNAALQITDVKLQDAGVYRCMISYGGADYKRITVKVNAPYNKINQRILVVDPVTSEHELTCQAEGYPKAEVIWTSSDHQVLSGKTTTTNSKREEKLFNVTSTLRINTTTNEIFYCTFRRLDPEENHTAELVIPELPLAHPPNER

B1: 23F11-C (antibody, V domains shown)
VH: QVQLQQPGAELVKPGASVKLSCKASGYSFTTYWMHWVKQRPGQGLEWIGMIQPNSGGTKYNEKFKKKATLTVDKSSTTASMELSSLTSEDSAVYYCARGAGTVDYFDYWGQGSTLTVSS
VL: DIVLTHSPVSLAVSLGQRATISCRASESVDIYGNSFMHWYQQKPGQPPKLLIYRASNLESGIPARFSGSGSRTDFTLTINPVEADDVATYYCQQSTEDPYTFGGGTKLEIK
notes: Mouse variable regions fused to a human IgG1 constant region; also called 23F11-chimeric; chimeric antibody 23F11
[1]
  EC50 (read off the curve): ~0.004 µg/mL
[2]
  EC50 (read off the curve): ~0.03 µg/mL
[3]
  IC50 (read off the curve): ~0.05 µg/mL
[4]
  EC50 (read off the curve): ~0.04 µg/mL
[5]
  IC50 (read off the curve): ~0.04 µg/mL
[6]
  EC50 (read off the curve): ~0.02 µg/mL

B2: 22C9 (antibody, V domains shown)
VH: QVQLQQSGAELVKPGASVKLSCKASGYTFTSYWMHWVWQRPGQGLEWIGMIHPNSDITNCNENFKHTVTLTVDKSSSTAYMQLSSLTSEDSAVFYCARSDGSSYWYFDVWGTGTTVTVSS
VL: SIVMTQTPKFLSVSAGDRVTITCKAGQSVNNDVAWYQQKPGQSPKLLIYYASNRYTGVPDRFTGSGYGTDFTFTISTVQAEDLAVYFCQQDFSSPLTFGAGTKLELK
notes: Mouse monoclonal from hybridoma; also called mouse monoclonal antibody 22C9
[7]
  EC50 (read off the curve): ~0.08 µg/mL
[8]
  EC50 (read off the curve): ~0.1 µg/mL
[9]
  Mean OD450: 1.92 OD450
  OD450 nM of sample-1: 1.9 OD450
  OD450 nM of sample-2: 1.94 OD450
[10]
  % of binding of Ab to E58A mutant vs. that to WT PD-L1: 17.2%
  Mean OD450: 0.33 OD450
  OD450 nM of sample-1: 0.35 OD450
  OD450 nM of sample-2: 0.309 OD450
[11]
  IC50 (read off the curve): ~0.2 µg/mL
[12]
  binding result: no binding (tested: 2 ug/ml)
[13]
  binding result: no binding (tested: 20 ug/ml)

B3: 4B6-C (antibody, V domains shown)
VH: EVQLQQSGPELVKPGASVKISCKASGYVFTDYYMNWVKQSHGKSLEWIGDINPNNGGTSYNHKFKGKATVTVDKSSRTAYMELLSLTSEDSAVYYCVKWGDGPFAYWGQGTLVTVSA
VL: DIVMTQSQKFMSTSVGDRVSITCKASQNVGAAVAWYQQKPGQSPKLLIYSASNRYTGVPDRFTGSGSGTDFTLTISNMQSEDLADYFCQQYSNYPTFGSGTKLGIK
notes: Mouse variable regions fused to a human IgG1 constant region; also called 4B6-chimeric; chimeric antibody 4B6
[14]
  EC50 (read off the curve): ~0.01 µg/mL
[15]
  binding result: no binding (tested: 20 ug/ml)
[16]
  EC50 (read off the curve): ~0.01 µg/mL
[17]
  EC50 (read off the curve): ~0.02 µg/mL
[18]
  EC50 (read off the curve): ~0.01 µg/mL
